Data as given in patent US20090246205A1 (Eli Lilly, published 2009).

T1: Recombinant RON-Fc (human, UniProt Q04912 25-571)
T1 construct: also called recombinant human RON receptor; MSP-R; not shown: Fc part of the bought RON-Fc (Sigma-Aldrich)
T1 sequence (looked up): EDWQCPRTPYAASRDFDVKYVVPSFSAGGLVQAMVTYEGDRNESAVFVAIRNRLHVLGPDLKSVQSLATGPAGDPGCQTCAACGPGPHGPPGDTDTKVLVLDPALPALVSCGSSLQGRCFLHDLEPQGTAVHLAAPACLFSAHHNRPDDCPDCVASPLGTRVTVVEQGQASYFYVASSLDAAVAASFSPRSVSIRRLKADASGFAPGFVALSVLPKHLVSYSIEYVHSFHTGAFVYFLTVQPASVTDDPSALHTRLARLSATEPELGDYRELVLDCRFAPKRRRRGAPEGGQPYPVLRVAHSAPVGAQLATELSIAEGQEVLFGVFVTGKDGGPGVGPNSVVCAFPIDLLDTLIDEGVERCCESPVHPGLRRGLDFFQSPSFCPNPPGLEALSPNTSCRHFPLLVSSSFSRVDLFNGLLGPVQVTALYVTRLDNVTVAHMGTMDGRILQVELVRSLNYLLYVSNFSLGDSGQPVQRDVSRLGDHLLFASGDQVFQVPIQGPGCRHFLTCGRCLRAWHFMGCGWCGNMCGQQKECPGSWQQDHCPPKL


Legend:
Recombinant RON-Fc [1] = target: T1, Recombinant RON-Fc; assay: ELISA, recombinant human RON receptor immobilized on the plate
Recombinant RON-Fc [2] = target: T1, Recombinant RON-Fc; assay: BIAcore 3000 SPR, RON-Fc immobilized, Fab or antibody injected
Method: BIAcore-Analysis. The binding kinetics of soluble Fab and antibody proteins to RON was determined by using a BIACORE 3000 (BIAcore, Piscataway, N.J.). Recombinant RON-Fc was immobilized onto a sensor chip, and Fab or antibody was injected at various concentrations. Sensorgrams were obtained and evaluated using BIA Evaluation 2.0 software to determine rate constants. The affinity constant, KD, was calculated from the ratio of the rate constants Koff/Kₒₙ. The “Kon, M⁻¹.S⁻¹” and “Koff, S⁻¹” rates of the interaction were used to determine the affinity (Kd, M) of the antibody/receptor interaction. […] For IMC-41B12, they were: 1e-10, 1.7e6 and 1.7e-4.

Recombinant RON-Fc [3] = target: T1, Recombinant RON-Fc; assay: ELISA, blocking of the MSP/RON interaction
Method: ELISA to Detect Fab Antibodies That Block the MSP/RON Interaction. Maxi-sorp 96-well microtiter plates (Nunc) were coated with (1 μg/ml×100 μl) MSP (R&D Systems) at RT for 1.5 hours. After washing the wells, they were blocked with 3% PBS/milk. Anti-RON phage antibodies that were converted to Fab or full IgG were pre-incubated with RON-Fc (25 ng/well) at RT for 1 hour. The Fab/RON-Fc or IgG/RON-Fc mixtures were then added to the MSP-coated wells and allowed to incubate for 1.5 h at RT.
ELISA for Determination of IC50 and ED50 The ability of the anti-RON antibodies, IMC-41A10 and IMC-41B12, to bind to recombinant human RON receptor and to block the MSP/RON interaction were measured using ELISA.

Binder | EC50 (Recombinant RON-Fc [1]) | Kd (Recombinant RON-Fc [2]) | koff (Recombinant RON-Fc [2]) | kon (Recombinant RON-Fc [2]) | IC50 (Recombinant RON-Fc [3])
IMC-41B12 (antibody, V domains shown, also called IMC-14B12) VH: QVQLQESGPGLVKPSEILSLTCTVSGGSISSHYWSWVRQPPGKGLEWIGYIYYSGSTNYNPSLKSRVTISVDTSKNQFSLNLSSVTAADTAVYYCARIPNYYDRSGYYPGYWYFDLWGRGTLVTVSS VL: QAVLTQPSSLSAPPGASASLTCTLRSGFNVDSYRISWYQQKPGSPPQYLLRYKSDSDKQQGSGVPSRFSGSKDASANAGILLISGLQSEDEADYYCMIWHSSAWVFGGGTKLTVLR | 0.1 nM | 0.1 nM | 0.00017 s⁻¹ | 1.7e+06 M⁻¹ s⁻¹ | 2 nM
IMC-41A10 (antibody, V domains shown, also called anti-RON IMC-41A10 antibody; IMC-14A10) VH: EVQLVQSGGGLVKPGGSLRLSCAASGFTFSSYAMHWVRQAPGKGLEWVAVISYDGSNKYYADSVKGRFTISRDNSKNTLYLQMNSLRAEDTAVYYCARFSGWPNNYYYYGMDVWGQGTTVTVSS VL: DVVMTQSPLSLPVTPGEPASISCRSSQSLLHSNGFNYVDWYLQKPGQSPHLLIYFGSYRASGVPDRFSGSGSGTDFTLKISRVEAEDVGVYYCMQALQTPPWTFGQGTKVEIR | 0.15 nM | 1.5 nM | 0.00013 s⁻¹ | 84000 M⁻¹ s⁻¹ | 2 nM
